In the nanobody polyreactivity screen of Harvey et al. (2022):

Assay: yeast display, Sf9 membrane polyspecificity reagent, FACS + sequencing; frameworks hold sequencing errors
Method in brief: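 In a synthetic yeast display library (Saccharomyces cerevisiae BJ5465), nanobody expression was induced with galactose for 36–48 hours. FACS gates were set low and high (top ~1%) using anti-HA fluorescence for expression and streptavidin fluorescence for binding of the Sf9 membrane reagent. Each polyreactivity label is drawn from the gate of origin.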

| Sequence | polyreactivity (PSR sort gate) |
| --- | --- |
| QVQLVESGGGLVQAGGSLRLSCAASGSIFNYNAMGWYRQAPGKERELVAGITTSGGSTYYADSVKGRFTISRDNAKNTVYLQMNSLKPEDTAVYYCAAYDYISSTYFLDDYWGQGTQVTVSS | low polyreactivity |
| QVQLVESGGGLVQAGGSLRLSCAASGFTFAVYVMGWSRQAPGKERELVATISFSVGSTYYADSVKRRFTISRDNAKNTVYLQMNSLKPEDTAVYYCNADPPPEYYPDKDNYWGQGTQVTVSS | low polyreactivity |
| QVQLVESGGGLVQAGGSLRLSCAASGFTFKYYVMGWYRQAPGKERELVASISKRGGSRNYADSVKGRFTISRDNAKNTVYLQMNSLKPEDTAVYYCAADYPATSGPRHYYWGQGTQVTVSS | high polyreactivity |
| QVQLVESGGGLVQAGGSLRLSCAASGRIFRRNTMGWYRQAPGKERELVAAITSSGGSTYADSVKGRFTISRDNAKNTVYLQMNSLKPEDTAVYYCAAVRLYRYDYWGQGTQVTVSS | low polyreactivity |
| QVELVESGGGLVQAGGSLRLSCAASGSTFFKYDMGWYRQAPGKERELVAVITWSGGTTFYADSVKGRFTISRDNAKNTVYLQMNSLKPEDTAVYYCAADYYGYRYDYWGQGTQVTVSS | low polyreactivity |
| QVQLVESGGGLVQAGGSLRLSCAASGRIFPANVMGWYRQAPGKETELVAAITRGDSTNYADSVKGRFTISRDNAKNTVYLQMTSLKPEDTAVYYCAAYGRYLLWDYDYWGQGTQVTVSS | low polyreactivity |
| QVQLVESGGGLVQAGGSLRLSCAASGFIFSIYAMGWYRQAPGKERELVAAISKSGGRTYYADSVKGRFTISRDNAKNTVYLQMNSLKPEDTAVYYCAVDPYYKYDYWGQGTQVTVSS | high polyreactivity |
| QVQLVESGGGLVQAGGSHRLSCAASGSIFHRYAMGWYRQAPGKERELVAGITWSGDSTYYADSVKGRFTISRDNAKNTVYLEMNSLKPEDTGVYYCAKRAPRHYKGVPAAWFGYWGQGTQVTVSS | low polyreactivity |
| QVQLVESGGGLVQAGGSLRLSCAASGFTNSMGWYRQAPGKERELVAAISYSGDSTNYADSVKGRFTISRDNAKNTVYLQMNSLKPQDTAVYYCNASSPYDYDWGQGTQVTVSS | low polyreactivity |
| QVQLVESGGGLVQAGGSLRLSCAASGSTFYGYAMGWYRQAPGKERELVAAITYSGGSTYYADSVKGRFTISRDNAKNTVYLQMNSLKPEDTAVYYCAATWLWFRRYRYDYWGQGTQVTVSS | high polyreactivity |
| QVKLVESGVGLVQAGGSLRLSCGASGFIFVRYAIVWSRQAPGKERDLVAAISGSGGRTYYAYSVKGRFTISRDNAKNTVYLKMNSLKPEDTSVYYCNVKSYTYGYLPYDYWGQGTQVTVSS | high polyreactivity |
| QDQHVESGGGLVQAGGSLRLSCAASGLIFNNYAMGWYRQAPGKERELVAPISRTGTSTYYADSVKGRFTISRDNAKNTVYLQMNSLKPEDTAVFYCNAVIQLFEWGWDDEYDYWGQGTQVTVSS | low polyreactivity |
| QVHLVESGGGLVQAGGSLRLSCAASGRTLAPNAMGWYRQAPGKERELVATITRGGTTNYADSVKGRFTISRDNAKNTVYLQMNSLKPEDTAVYYCAAGYPSWYYGYPYDSWGQGTQVTVSS | low polyreactivity |
| QVQLVESGGGLVQAGGSLRLSCAASGSTFNANTMGWYRQAPGKEREFVAAISWTGASTYYADSVKGRFTISRDNAKNTVYLQMNSLKPEDTAVYYCNADYTVADGPYRDGYDYWGQGTQVTVSS | low polyreactivity |
| QVQLVESGAGLVQAGGSLRLSCAASGFTFSRNAMGWYRPAPGKERELVASISGRGGRTYYADSVKGRFTISRDNAKKTVYLQMNSLKPEATAVYFCAARWRQRKSVRYGQQGYDYWGQGTQVTVSS | high polyreactivity |
| QVQLVESGGGLVQAGGSLRLSCAASGSTFYYYAMGWYRQAPGKERELVAAISASGDSTYYADSVKGRFTISRDNAKNTVYLQMNSLKPEDTAVYYCAAQYYFYPHEFDYWGQGTQVTVSS | low polyreactivity |
| QVQLVESGGGIVQAGGSLRLSCAASGFTFGAYAMGWSRQAPGKEGELVASISWSGGSTYYADSVKGRFTISRDHAKNTVNLQMNSLKPEDTAVYYCNKDFVYPDDDGLFDYWGQGTQETVSS | low polyreactivity |
| QVHLVESGGGLVQAGDSLRLSCASSGIIFYDYAMGWYRPAPGKERELVAAITSSGGSTYYADSVKGRFTISRDNAKNTVYLQMNSLIPEDTAVYYCAAATRGSGRRYDYLGQGTQVTVSS | high polyreactivity |
| QVHLVESGGGLVQAGGSLRLSCAASGRIFNQYGMGWSRQAPGKERELVAAIRSGDSTNYADSVKGRFTISRDNAKNTVYLQMNSLKPEDTAVYYCARDRPGDYAGYDYWGQGTQVTVSS | low polyreactivity |
| QVQLVESGGGLVQAGGSLRLSCAASGGIFSYYAMGWSRQSPGKEREFVAAIDWGGGSTYYADSVKGRFTISRDNAKNTLNLQMNSLKPEDTAVYYCAAEIYPIRWDDYDYWGQGTQVTVSS | low polyreactivity |
| QVQLVESGGGLVQAGGSLRLSCASSGLILFYNAMGWYRQAPGKERELVATIRRGGTTYYADSVKGRFTISRDNAKNTVYLQMNSLKPEDTAVYYCAKESLYQYDYWGQGTQVTVSS | low polyreactivity |
| QVQLVESGGGLVQAGGSLRLSCAASGRIFDVNAMGWYRQAPGKERELVAAINKSGGTTYYADSVKGRFTISRDNAKNTVYLQMYSLKPEDTAVYYCAADSYSSRYDYWGQGTQVTVSS | high polyreactivity |

| Sequence | polyreactivity (PSR sort gate) |
| --- | --- |
| QVQLVESGGGLVQAGGSLRLSCAASGRTSYVYAMGWYRQAPGKERELVATISFRGGSTYYADSVKGRFTISRDNAKNTVYLQMNSLKPEDTAVYYCAATTPYYTPRRRNEYWGQGTQVTVSS | high polyreactivity |
| QLQLVESGGGLVQAGGSLRVSCAASGSIFLRYAMGWYRQAAGKERELVAAITSSGGSTYYADSVKGRFTISRDNAKNTVYLQMNSLKPEDTAVYYCNRYSYLFPYYWKYDYWGQGTQVTVSS | high polyreactivity |
| QDQLVESVGGLVQAGGSLRLSCAASGRTIDPNAMGWYRQAPGKERELVAAITRTGVRTYYADSVKGRFTISRDNAKNTVYLQMNSLKPEDTAVYYCAASYSGRQDRYPHYDYWGQGTQVTVSS | low polyreactivity |
| QVQLVESGGGLVQAGGSLRLSCAACGSILKQYAMGWYRQAPGKERVLDAAITWRGTGTYYADSVKGRFTISRDNAKKTVYLLMNSLQAEDTAVSYCAAKWYRRTYGYLPYTGIVNYDYWGQGTQLTVSS | high polyreactivity |
| QVQLVESGGGLVQAGGSLRLICAASGSIFLNYAMGWYRQAPGKERELVASLRRIGGRTFYADSVKGSFTISRDNAKNTVYLQMNSLKPEDTAVYYCAAEYYYGLTVEYWGQGTQVTVSS | high polyreactivity |
| QVQLVESGGGLVQAGGSLRLSCAASGFNFGSNAMGWYRQAPGKERELVAAITYSGASTYYADSVKGRFTISRDNAKNTVYLQMNSLKPEDTAVYSCAADLTSYYGGDYWGQGTQVTVSS | low polyreactivity |
| QVQLVESGGGLDQAGGSLRLSCAASGFIYSWYAMGWYRQAPGKERELVAAISSSGVSTYYADSVKGRFTISRDNAKNTVYLQMNSLKPEDTAVYYCNAYGSVWDRGEYDYEYWGQGTQVTVSS | low polyreactivity |
| QVQLVESGGGLVQAGGSLRLSCAASGYTFEYNAMGWYRQATGKEREFVATITASGDSTYYADSVKGRFTISRDNAKNTVYLQMNSLKPEDTAVYYCATEKRDVYFTAKYDYWGQGTQVTVSS | low polyreactivity |
| QVQLVESGGGLVQAGGSLRLSCAASGNNLLGYAMGWYRQAPGKEREWVAAISSSGGRTYYADSVKGRFTISRDNAKNTVYLQMNSLKPEDTAVYYCAAYTYSAGGYWGQGTQVTVSS | high polyreactivity |
| QVQLVESGGGLVQAGGSLRLSCAASGSILFHYAMGWYRQAPGKERELVAAISRRGGSTYYADSVKGRFTISRDNAKNTVYFQMNSLKPEDNAVYYCAKYPSAYVDSDVTYDMDYWGQGTQVTVSS | low polyreactivity |
| QVQLVESRGGLVQAGGSLRLSCAASGSTFTYNAMGWYRQAPGKERELVASINSGGSTYYADSVKGRFTISRDNAKNNFYLQMNSLKPEDTAVYYCAKDLHLDSYASDYWGQGTQVTVSS | low polyreactivity |
| QVQLVESGGGLVQAGGSLRLSCAASGYTFVVYAMGWYRQAPGKERELVAGITRGSSTYYADSVKGRFTISRDNAKNTVYLQMNSLKPEDTAVYYCARGYTWFYAVWPEYDYWGQGTQVTVSS | high polyreactivity |
| QVQLVESGGGLVQAGGSLRLSCAASGITFYSYAMGWYRQAPGKERELVAAISTTVGSTYYADSVKGRFTISRDNAKNTVYLQMNSLKPEDTAVYYCNAYRVYAWIEYNYWGQGTQVTVSS | low polyreactivity |
| QVQLVESGGGLVQAGGSLSLSCAASGIIFIYYGMGWYRQAPGKERELVAAISRSGGRTYYADSVKGRFTISRDNAKNTVYLQMNSLKPEDTAVYYCATTYTPTGFDYWGQGTQVTVSS | high polyreactivity |
| QVQIVESGGGLVQAGGSLRLSCAASGSIFFIYGMGWYRQAPVKERELVARIRVSGDSTYYADSVKGRFTISRDNAKNTVYVQMNSLKPVDTAVYYCNARSLWGYGYWGQCTQVTVSS | high polyreactivity |
| QVQLVESGGGLVQAGGSLRLSCAASGIIFSPNAMGWYRQAPGKERELVAGISSGGSTYYADSVKGRFTLSRDNAKNTVYLQMNSLKPEDTAVYYCAVRSRIFGSWYGYGYWGQGTQVTVSS | high polyreactivity |
| QVQLGESGGGLVQAGGRLRLRCAASGIIFTKYAMGLYRQAPGKERELVAAITASGGSTYYADSVKGRFTISRDTAKNTVYLQMNSLKPEDTAVYYCAARSPSRYGYWGQGTQVTVSS | high polyreactivity |
| QVQLVESGGGLVQAGGSLRLSCAASGFTFDYYVMGWYIQAPGKERELVAAITFSATSTYYADSVKGRYTISRDNAKNTVYLQMNSLNPEDTAVYYCAAVICNWQYQYYYWGQGTKVTVSS | low polyreactivity |
| QVQLVESGGGLVQAGGSLRLSCAASGLIYFYAMGWYRQEPGKERELVAAISSSGGRTYYADSVKGRFTISRDNAKNTVYLQMNSLKPEDTAVYYCAVVSSHYKGPGRNGYDYWGQGTQVTVSS | high polyreactivity |
| QVQLVESGGGLVQAGGSLRLSCAASGSFYDRYVMGWYRQAPGKERELVAAISSSGGSTYYADSVKGRFTISRDNAKNTVYFQMNSLKPEDSAVYYCAAKFSYGRYNYWGQGTQVTVSS | high polyreactivity |
| QVQLVESGGGLVQAGGSLRLSCAASGSTFYTYALGWYRQAPGKERELDAAITYNGGSTYYADSVKGRFTISRDNAKNTVYLQMNSLKPEDTAVYYCARTIYLGSRVNGYWRYDYWGQGTQVTVSS | high polyreactivity |
